This is an account of results in the DeepSol protein solubility set.

The data set is described as follows: soluble on expression in E. coli; label from the status in PepcDB or PDB records.
As for “MSTGVKANDVKTKTKGADLVVDCLIKQGVTHVFGIPGAKIDSVFDVLQERGPELIVCRHEQNAAFMAAAIGRLTGKPGVCLVTSGPGTSNLATGLVTANAESDPVVALAGAVPRTDRLKRTHQSMDNAALFEPITKYSVEVEHPDNVPEALSNAFRSATSTNPGATLVSLPQDVMTAETTVESIGALSKPQLGIAPTHDITYVVEKIKAAKLPVILLGMRASTNEVTKAVRALIADTELPVVETYQAAGAISRELEDHFFGRVGLFRNQPGDILLEEADLVISIGYDPIEYDPKFWNKLGDRTIIHLDDHQADIDHDYQPERELIGDIALTVNSIAERLPKLVLSTKSEAVLERLRAKLSEQAEVPNRDSEGVTHPLQVIRTLRSLISDDTTVTCDIGSHSIWMARCFRSYEPRRLLFSNGMQTLGVALPWAIAATLVEPGKKVVSVSGDGGFLFSAMELETAVRLNSPIVHLVWRDGTYDMVAFQQMMKYGRTSATEFGDVDLVKYAESFGATGLRVNTPDELEGVLKSALAADGPVIIDIPIDYRDNIKLSEKLLPNQLN”, the “soluble on expression in E. coli” value is “not soluble”.

In the case of “MTNPVDVNLINGIALAFEGDAVYSYYVRRHLIFQGKTKPSQLHRLATRYVSAKAQANLIQAMLEAQLLTEKEEDIYKRGRNTNSHTKAKNADIITYRMSTGFEAIMGYLDMMGQKERLEELIRWCIEYVEKQQLISSLEHHHHHH”, the “soluble on expression in E. coli” value is “soluble”.

In the case of “MLLQEELEQRTVSVSIQAAKLSGRVLRAAIAAVLQKMEQERTMPKVGRNSMKRLTYKDPGANTIEVSGRIRSFERYARKHQVRYHIEKELGTDPPKWTVYFKANQADALTAAFKEYTKKDLTRSTRPSLLIQLHKFKELAQSLGRDRVKNKEHGGPER”, the “soluble on expression in E. coli” value is recorded as “not soluble”. Turning to “MIDLHTHTIFSDGELIPSELVRRAVIHGYEAIALTDHADYTNLEQLLDAAKKAKYLEEEWDIRVLSGVELTHVPPRKIAPMAKKAKELGAEIVVVHGETISEPVAQGTNAASAACEYVDILAHPGLISEEDVRTAAENNVFLELTARNGHNRTNGHVARLALEFGATLVVNTDTHAPENLITDETALKIAMGAGL”, the “soluble on expression in E. coli” value was “not soluble”.

In the case of “AIAGELTDALLGKGALKTRFGSLLGQGDWGGVRVSQVEVRWVIFCLLHWLHVNLPVTEYLALDVLFPLAIVQKHSIL”, the “soluble on expression in E. coli” value is “soluble”.

Turning to “MIFTYNREHVGDTLMVIVKDSQGAKLDVDRRGQVARVYLQDSKETVAWNIFEVSSLIVIEGAGQITLSDQDIKILNAELLKEGFEDSLVNNIEPTFVVAQIKEIIDHPDSDHLHICQAEINDGKTVQIVCGAPNASVGLKTVAALPGAMMPNGSLIFPGKLRGEDSFGMLCSARELALPNAPQVRGIIELSDQVIVGESFDANKHWKNLEHHHHHH”, the “soluble on expression in E. coli” value is on record as “soluble”. To “GSGVDFYDVAFKVMLVGDSGVGKTCLLVRFKDGAFLAGTFISTVGIDFRNKVLDVDGVKVKLQMWDTAGQERFRSVTHAYYRDAHALLLLYDVTNKASFDNIQAWLTEIHEYAQHDVALMLLGNKVDSAHERVVKREDGEKLAKEYGLPFMETSAKTGLNVDLAFTAIAKELKRRSMKAP” belongs “soluble”.

Consider “MGSDKIHHHHHHMEVIDLLFSLTPKTKKEDLFDRERELKDLEKLLETYPIVVITGLRRVGKSSLVKVFLNKSDLLHITVDGRRLYETSGGNISSHHLTRFLGEELSRISKSQKLLNVLKRVRGITVSGTSIELNPKEFSLSDLLEKLNETAKRRKKKIVIFFDEAQYLRYYGSRGGNDLLALFAYCYDNFENVRFIISGSEVGVLHDFLKLEDYSSPLHGRGIGFLTVRPFTFDQSVDFLMEGFREVGEKINFDVEEIVREIDGIVGYLVLFGVKYLEKKKKDEALKEVFHAVKALFEKEMEELRKRSERYPFILRQIARGINTWSALKNIFRAKGDFIGDSRLYSLLETLEKMSFIEKTQSGYRIVDPVFERILRE”, for which the “soluble on expression in E. coli” value is on record as “not soluble”.

Turning to “MSLSLREVSQLLCQLKVLDQKITKVFEEQVGLSLTRYELLMILKERQPCLQTEIQEHLKIDSGAVTRHLKILEEKQYVTRQRNPENNREVLVHLTEKAQQELQQCTAKQQTVTEIIPSTFTKDDCRQLKELLTKLDQSITTKEV”, the “soluble on expression in E. coli” value is on record as “not soluble”. For the sequence “DERLELMESVDVGQTPSNVVYEENKLELLHYDAEAAGIEVPDEEKEDVPILIVYALINRPYILDLQEERSVVRRLLEAGHDVYLIDWNEPSRLDQHLTLDDYVNRYMDNCVDVVRDRSGQDAINILGYCMGGTMSVMYTALHKEKVNTLGLMAAGLCFDHTGGVLEEWGSEEYYSPQDVVDTFGNVPADMLDIGFALMDPVENYVTKYIRFAENMENEGFVENFGRMEQWLGDGIDVAGEAYVQFLEDVYQDNKLYKNELELDGKHVDLDNIDMPVLQLMGEYDHLIPPEASKPFNDVIASDDTRTIEFSTGHIGLSVSSSTHADLWPEVAEWYSER”, the “soluble on expression in E. coli” value is given as “not soluble”. On to “MIIRETERLILREWKESDRDLFREINADEKVMEFFPFRRSHAEADAVLETINGMIRGSGYGFYAMELRETGEVMGFCGISPVMNLDPPFPIGTMEIGWRLATRFWGHGYVTEAAQSLLVMAFDEKETPEIVSFAVHDNHRSTAVMERIGLRRDPSRDFDHPRVPEETHPHLRPHVTYALTLEEWRAR”, for which the “soluble on expression in E. coli” value was “not soluble”. For “MAKGDVITLNFETFVDSDTQVKVTRLTPTDVICHRNYFYQKCFTQDGKKLLFAGDFDGNRNYYLLNLETQQAVQLTEGKGDNTFGGFISTDERAFFYVKNELNLMKVDLETLEEQVIYTVDEEWKGYGTWVANSDCTKLVGIEILKRDWQPLTSWEKFAEFYHTNPTCRLIKVDIETGELEVIHQDTAWLGHPIYRPFDDSTVGFCHEGPHDLVDARMWLVNEDGSNVRKIKEHAEGESCTHEFWIPDGSAMAYVSYFKGQTDRVIYKANPETLENEEVMVMPPCSHLMSNFDGSLMVGDGCDAPVDVADADSYNIENDPFLYVLNTKAKSAQKLCKHSTSWDVLDGDRQITHPHPSFTPNDDGVLFTSDFEGVPAIYIADVPESYKHLEHHHHHH”, the “soluble on expression in E. coli” value is “soluble”.

Turning to “MILGIDIGGANTKITELHENGEFKVHHLYFPMWKNNDKLAEVLKTYSNDVSHVALVTTAELADSYETKKEGVDNILNAAESAFGSNISVFDSNGNFISLESAKTNNMKVSASNWCGTAKWVSKNIEENCILVDMGSTTTDIIPIVEGKVVAEKTDLERLMNHELLYVGTLRTPISHLGNTISFKGVDTNVSSEYFAITADISVVLEKVTTEEYTCDTPDGKGTDKRSSLVRISKVLCSDLDQISEIDAENIAKNYYELWKELILENVENVAEKYGSKKVVITGLGENILKDALADFEVISVAERYGKDVSLATPSFAVAELLKNELLEHHHHHH”, the “soluble on expression in E. coli” value is on record as “soluble”.

For the sequence “DYYFDSYDHYGIHEEMLQDTVRTLSYRNAIIQNKDLFKDKIVLDVGCGTGILSMFAAKHGAKHVIGVDMSSIIEMAKELVELNGFSDKITLLRGKLEDVHLPFPKVDIIISEWMGYFLLYESMMDTVLYARDHYLVEGGLIFPDKCSIHLAGLEDSQYKDEKLNYWQDVYGFDYSPFVPLVLHEPIVDTVERNNVNTTSDKLIEFDLNTVKISDLAFKSNFKLTAKRQDMINGIVTWFDIVFPAPKGKRPVEFSTGPHAPYTHWKQTIFYFPDDLDAETGDTIEGELVCSPNEKNNRDLNIKISYKFESNGIDGNSRSRKNEGSYLMH”, the “soluble on expression in E. coli” value is on record as “soluble”. On to “MGKLIDIPIVVESGQKYKTSQGVTAIKDGIKSSGQDHERLPKPKWLRIVNHTTPAYSQVKEQVQKHRLATVCEEAKCPNISECWSHGTATIMLMGAVCTRACRFCSVDTGNPHGWLDAEEPENTAETVALMNLDYVVLTSVNRDDLPDGGANHYAKTIRAIKKRSPRTKVEALTPDFQGSERDVAVLLDSGVDVFAQNVETVERLTHPVRDNRAGYQQTLNVLAFAKKYRPDVLTKTSLMLGLGETDEEIIQTMDDLRTHHVDILTLGQYLQPTKNHLPIARYVTPETFSELRQIGLKKGFFEVASGPLVRSSYRADRVFKRDNLGLDV”, for which the “soluble on expression in E. coli” value is on record as “not soluble”. For “MAHHHHHHMQPVKTAVGIRQGLRRCTQLPNKSFRILHVSPRQLTVSTGGDDILKEQRRLQQHGTCTRNNIFRHGVVCACNLLQGYTISIKTNSLIHHSLNFTGNTKTQASKDTHLSNKLYQTFRIIHLHPPIRINVHQWCIGIQNECMAVILHIHRPMFI”, the “soluble on expression in E. coli” value is reported as “not soluble”. For the sequence “GMDPKHGNLFADVPVGAPDEIFQPLLERKGLKIERIISNGQASPPGFWYDSPQDEWVMVVSGSAGIECEGDTAPRVMRPGDWLHVPAHCRHRVAWTDGGEPTVWLAVHCDAA”, the “soluble on expression in E. coli” value is listed as “soluble”.

With “MPSLFKTMAFQLKTERLELSMWEESDSVWLSKLIGERGVDIPAVDSVRNRLIEMRKKADENGISLLTIRRRDEGDFIGYCGLIIGRSTLEEPEIAYELFRSAHGKGYATEAASVVLDAAIATGRQRLWSTVGAWNIASLRVLEKIGFKRHHSTWDDERGEIVWNVRDL”, the “soluble on expression in E. coli” value is “not soluble”. To “IFEDEEDQITKVDSLKKEGNNFFANGEFEKANEKYQEAIASCPPTSTEVQSILLSNSAAALIKLRKWESAVEAASKSIEIGATNEKALERRAFAYSNMSEKYENSIEDYKQLQESLPKRRVELDRKIAEINEKINNRNEAMKADVMEKLKGFGNFCLSPFGLSTDSFEMVPNGNGGFSVQMKGATNKQEGAS” belongs “not soluble”. In the case of “MGSDKIHHHHHHMPNHDALAGGKVHLRRGVDLQVSHSPGVYPPLVFIHGGTGNRFNFRMQYEFAQAQGWEVLAYDLGGNGQSSRYSRYSIGRHCRDLARLLVRFGVESPVLCCHSYGVPIGLEFVQHHPVSAIIAIAGGTHDLAPWWEIPLMKFMAGGGRYLLHLPGVQKINKLLSTSYSHSVMERFFVENPPPTDFDAYKGLEIFWDYNFFIRHPLPKNLHIPALVITADKDPTFTANMGDELANHFDDGTHLHFAKGGHLVMAESAELVNEAIANWLIQKLTIN”, the “soluble on expression in E. coli” value is listed as “not soluble”. Take “MIDERLKKDLAILPISTVRALTNLSDRQIRYYESQDLLTTKRGKGGQRRFSLNDVERLIEIRMMMESGDSLKDIHNLYETHRVSNRRNEKTEFVHSLENEFLKIGRLEKH”: the “soluble on expression in E. coli” value is reported as “not soluble”. “CSDLPEIQNGWKTTSHTELVRGARITYQCDPGYDIVGSDTLTCQWDLSWSSDPPFCEKTEE”: the “soluble on expression in E. coli” value was “soluble”. To “TDKVRQNEKQKRSKALAQTQVNKRLLNEHGLNTPPMMKDEADQFVVSPTNWAGIIDQALAPPRTRKSYQKSMVSISGTKAVIETRSSKN” belongs “not soluble”; to “MKSTDQFQTHEVPWEEFIEALREEMKKQVGADIIDTVVCNLEDGFEVYTYVQGDLDFEYKEALERKYGSDAKTPNVLTIMLLASIYNTSEENIRLHADHKENPIVEVYVKQGNTL”, “not soluble”.

“MGSDKIHHHHHHMSEPLRIIHGAFGRVALLLLDRTMAVHAHRVCHVVFKIGGVDILFGVRELEHYLSDDNVLLVNAWEPHFYNHNRDAPSTVLLALYLEPQWLRKVDTRFSCSAHPKFFSQPILALGSKLAGLRADLLDLLTGRESTGSRVVEDLIVRTIIELACVGTRWKELLECQLMGSLAYDARIRQSLDEMKSRGGVALDFDEIASSVGLSRPHFFHLFRKQIGMTPATFGSMLRMEASIDSLAATDTAIHDIARHLGFDSPGNFTRFFLCQQGVTPSQYRRKVEFTTLTCS”: the “soluble on expression in E. coli” value is on record as “not soluble”. With “MSLKFIVIKIGGSTLSDMHPSIINNIKHLRSNNIYPIIVHGGGPFINEALSNQQIEPHFVNGLRVTDKATMTITKHTLIADVNTALVAQFNQHQCSAIGLCGLDAQLFEITSFDQQYGYVGVPTALNKDALQYLCTKFVPIINSIGFNNHDGEFYNINADTLAYFIASSLKAPIYVLSNIAGVLINDVVIPQLPLVDIHQYIEHGDIYGGMIPKVLDAKNAIENGCPKVIIASGNKPNIIESIYNNDFVGTTILNSEGHHHHHH”, the “soluble on expression in E. coli” value is reported as “soluble”.
